B1: C22orf15 (parent)
chain: PRGRAHLLPNPYQQDFLGLPEELR
B2: SOAT1 (parent)
chain: GVLILFLTFFAFLHCWLNAFAEML

Variants of: B1
Assay: protein stability index of a GFP-peptide fusion (GPS, HEK-293T) (PSI 1-6); higher = more stable
Settings: c terminus: a fixed tail appended
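Note: lentivirally expressed fusions sorted by FACS into six bins by GFP to DsRed ratio, PSI derived from sequencing read proportions per bin multiplied by bin number.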

Protein stability index: each site, then its substitutions
H6: T 3.87; V 3.54; I 3.65; Y 3.02; G 4.26; F 2.99; Q 3.75; A 3.57; S 3.81; K 3.87; C 3.68; P 3.93; E 4.58; W 2.85; L 3.44; R 3.71; D 4.4; N 4.26; M 4.04
N10: C 3.58; A 3.95; F 3.35; G 4; K 3.77; P 4.07; E 3.61; Q 4.12; D 4.16; M 3.54; I 3.97; H 4.06; L 3.69
A5: T 4.05; I 2.96; L 3.12; M 3.48; F 2.69; E 3.9; K 3.32; P 3.56; Q 4.07; W 2.62; N 4.1; Y 2.98; H 3.78; G 3.63; S 4.04; D 4.25; C 2.69; R 3.34; V 3.63
R4: W 2.96; E 3.96; V 3.86; F 3.77; M 3.42; Q 3.73; T 3.68; K 3.36; G 4.27; D 4.25; P 3.92; H 4.06; A 4.23; I 3.24; N 3.99; Y 3.57; L 3.59; C 2.85; S 3.81
P9: M 3.8; Y 3.32; H 3.29; N 3.77; F 2.94; W 2.53; T 3.61; S 3.88; A 3.66; I 2.88; E 3.89; K 3.73; G 2.77; D 3.79; V 3.71; L 3.35; Q 3.84; R 3.18; C 2.66
G3: K 3.16; N 3.61; M 2.7; P 3.77; A 4.32; L 3.51; C 3.15; R 3.52; S 3.52; W 3.27; T 2.66; D 4.03; Q 3.45; H 3.79; E 3.82; V 3.93; F 3.79; Y 3.72; I 3.83
R2: V 3.81; E 4.69; T 4.22; A 4.04; M 4.08; H 3.87; P 4.18; L 3.76; F 3.31; W 3.33; Y 3.5; Q 4.24; G 4; K 3.75; I 3.62; S 4.15; C 2.26; N 3.46; D 3.44
L8: Q 4.24; W 2.56; H 3.86; A 3.58; N 4.09; S 3.93; P 4; T 3.23; M 3.95; I 3.94; E 3.96; K 3.98; G 3.59; D 4.6; V 4.02; C 4.14; F 3.49; Y 3.25; R 3.56
L7: A 4.23; T 5.36; F 3.84; K 4; I 3.8; Q 3.86; D 3.96; P 4.06; C 3.84; G 4.08; E 4.62; S 4.98; R 4.12; Y 3.92; H 3.9; M 4.18; V 4.12; N 4.33; W 3.24
P1: D 4.1; Q 3.72; V 2.83; C 2.22; F 2.61; T 3.52; L 2.64; R 3.06; K 3.22; N 3.69; I 2.37; S 3.23; H 3.6; G 3.75; M 2.93; Y 3.11; E 3.96; W 2.92; A 3.34

Variants of: B2
Assay: as above
Settings: c terminus: a fixed tail appended

Protein stability index: each site, then its substitutions
W16: Y 2.31; V 3.12
L24: E 3.41; G 3.4; R 2.33; K 3.06; S 3.29; D 1.75; Q 3.14; T 3.04; P 2.68; M 2.72; V 2.75; I 2.63; A 2.69; C 3.67; F 2.23; W 2.06; N 2.98; Y 2.88
E22: N 2.79; I 2.95; R 1.7; W 3.25; K 2.31; V 3.24; H 3.56; D 2.19; C 2.74; Q 2.63; M 3.66; F 3.34; T 2.47; P 3.59; G 2.16; S 3.37; A 1.99; L 2.92; Y 2.22
A21: Y 1.84; S 1.84; D 2.14; I 2.93; L 1.4; K 2.01; M 3.62; V 2.73; E 1.83; C 2.48; P 2.29; T 2.29; F 3.12; H 2.98; R 2.11; N 2.76; G 2.77; Q 3.1
F20: K 2.71; D 3.92; R 2.89; M 2.85; L 2.56; C 2.33; W 3.57; P 2.93; H 3.21; S 2.94; V 3.21; N 2.01; E 2.67; A 3.08; G 2.22; Y 2.9; T 1.98; I 2.67
L17: T 2.88; D 2.9; P 2.22; M 2.95; G 2.06; I 2.26; W 2.44; C 2.63; F 2.8; H 1.87; E 3.02; Y 3.42; V 3.02; S 1.44; K 3.15; Q 2.24; A 2.74; R 3.44; N 2.84
N18: F 3.51; Y 2.61; L 3.64; G 2.52; W 2.94; D 1.71; R 2.55; K 2.48; S 2.51; M 2.78; E 3.51; T 3; V 2.45; P 3.85; Q 2.81; I 2.85; H 2.92; C 1.59
M23: K 2.91; D 2.29; I 2.85; Y 2.54; S 3.71; F 2.67; A 2.44; V 2.08; P 3.44; R 2.77; L 2.88; G 2.18; C 3.08; Q 2.73; W 2.61; T 2.98; E 1.75; N 2.68; H 2.55
A19: W 1.73; N 2.8; I 2.76; C 2.73; T 2.82; L 3.05; K 2.96; Q 2.59; D 2.85; R 1.64; S 2.83; F 1.68; H 3.33; V 2.77; E 3.48; Y 2.29; P 2.31; G 3.14; M 3.03

From the supplement of paper PMC10567573
